Source: patent US20240368279A1 (published 2024)

B1: Hu004-68 (antibody, V domains shown)
VH: EVQLVESGGGLVQPGGSLRLSCAASGFTFSGYGMSWVRQAPGKGLEWVATITSGGTYTYYPDSVKGRFTISRDNAKNSLYLQMNSLRAEDTAVYYCARSLAGNAMDYWGQGTLVTVSS
VL: EIVLTQSPVTLSVSPGERATLSCRASQGVTSNLAWYQQKPGQAPRLLIYGASTRATGVPARFSGSGSGTEFTLTISSLQSEDFAVYYCQHRGTFGQGTKVDIK
B2: Hu004-73 antibody (full-length human IgG1, kappa) (antibody, V domains shown)
VH: B1 VH
VL: DIQMTQSPSSLSASVGDRVTITCRAGQPLNNYLNWYQQKPGKPPRLLIYAASTLQSGVPSRFSGSGSGTDFTLTISGLQSEDFASYFCQHRVTFGPGTKVDVR

Columns and labels:
12283-H08H = 12283-H08H (human, UniProt Q08722 19-139); experiment: SPR
[1] = target: human CD47 protein (antigen of the SPR affinity determination) (human, UniProt Q08722 19-139); experiment: SPR

Binder	Kd (12283-H08H) [nM]	Kd [1] [nM]
B1	222	–
B2	–	184
